The values below come from paper PMC10286367.

B1: mouse full-length p65-HA [mouse] / glycogen synthase kinase 3β (Gsk3β) [mouse (endogenous in hippocampal tissue)] (parent)
chain 1: MDDLFPLIFPSEPAQASGPYVEIIEQPKQRGMRFRYKCEGRSAGSIPGERSTDTTKTHPTIKINGYTGPGTVRISLVTKDPPHRPHPHELVGKDCRDGYYEADLCPDRSIHSFQNLGIQCVKKRDLEQAISQRIQTNNNPFHVPIEEQRGDYDLNAVRLCFQVTVRDPAGRPLLLTPVLSHPIFDNRAPNTAELKICRVNRNSGSCLGGDEIFLLCDKVQKEDIEVYFTGPGWEARGSFSQADVHRQVAIVFRTPPYADPSLQAPVRVSMQLRRPSDRELSEPMEFQYLPDTDDRHRIEEKRKRTYETFKSIMKKSPFNGPTEPRPPTRRIAVPTRNSTSVPKPAPQPYTFPASLSTINFDEFSPMLLPSGQISNQALALAPSSAPVLAQTMVPSSAMVPLAQPPAPAPVLTPGPPQSLSAPVPKSTQAGEGTLSEALLHLQFDADEDLGALLGNSTDPGVFTDLASVDNSEFQQLLNQGVSMSHSTAEPMLMEYPEAITRLVTGSQRPPDPAPTPLGTSGLPNGLSGDEDFSSIADMDFSALLSQISS
chain 2: MSGRPRTTSFAESCKPVQQPSAFGSMKVSRDKDGSKVTTVVATPGQGPDRPQEVSYTDTKVIGNGSFGVVYQAKLCDSGELVAIKKVLQDKRFKNRELQIMRKLDHCNIVRLRYFFYSSGEKKDEVYLNLVLDYVPETVYRVARHYSRAKQTLPVIYVKLYMYQLFRSLAYIHSFGICHRDIKPQNLLLDPDTAVLKLCDFGSAKQLVRGEPNVSYICSRYYRAPELIFGATDYTSSIDVWSAGCVLAELLLGQPIFPGDSGVDQLVEIIKVLGTPTREQIREMNPNYTEFKFPQIKAHPWTKVFRPRTPPEAIALCSRLLEYTPTARLTPLEACAHSFFDELRDPNVKLPNGRDTPALFNFTTQELSSNPPLATILIPPHARIQAAASPPANATAASDTNAGDRGQTNNAASASASNST

In test [1] the parent is B1. Put plainly: co-IP with Gsk3β followed by WB, band quantification. The following applies: with glycogen synthase kinase 3β (Gsk3β) [mouse (endogenous in hippocampal tissue)]; p65-HA variant co-expressed with Ogt-Flag and Gsk3β; n = 3 independent experiments; parent: 1; read off a plot.
In test [2] the parent is B1. The test is described as follows: co-IP with HA (p65) followed by WB, band quantification. The following applies: with glycogen synthase kinase 3β (Gsk3β) [mouse (endogenous in hippocampal tissue)]; p65-HA variant co-expressed with Ogt-Flag and Gsk3β; n = 3 independent experiments; parent: 1; read off a plot.

As to chain 1 S370A, the response (relative protein level (HA / Gsk3β)) in test [1] is 1. For the same variant, in test [2], the response (relative protein level (Gsk3β / HA)) turned out to be 1.1.
For the variant chain 1 S374A, the response (relative protein level (HA / Gsk3β)) in test [1] came to 1.1. Also, the response (relative protein level (Gsk3β / HA)) in test [2] was found to be 1.
In the same order, the values of chain 1 S396A are 1 and 1.1.
chain 1 S384A: in test [1], the response (relative protein level (HA / Gsk3β)) worked out at 2.4. Further, the response (relative protein level (Gsk3β / HA)) in test [2] turned out to be 2.1.
